Data reported in US20090149339A1 (published 2009).
Ends that are not written are not given here. * marks the point of attachment. Biotin = O=C1N[C@H]2[C@H](CS[C@H]2CCCCC(=O)*)N1

Columns and labels:
[1] = biological target: T1, GST-AF6 PDZ domain fusion protein (af-6 protein AA985-1077; PDZ domain 1 of 1) (UniProt P08515 1-218 = GST); assay: A assay
[2] = biological target: T2, GST-prIL16 PDZ domain fusion protein (putative interleukin 16 precursor AA170-383; PDZ domains 1-2 of 2) (UniProt P08515 1-218 = GST); assay: A assay
[3] = biological target: T3, GST-41.8 kD PDZ domain fusion protein (hypothetical 41.8 kD protein AA4-85; PDZ domain 1 of 1) (UniProt P08515 1-218 = GST); assay: A assay
T3 construct: also called hypoth

[4] = biological target: T4, GST-MPP1 PDZ domain fusion protein (55 Kd erythrocyte membrane protein AA101-186; PDZ domain 1 of 1) (UniProt P08515 1-218 = GST); assay: A assay
[5] = biological target: T5, GST-RGS12 PDZ domain fusion protein (human regulator of G-protein signalling 12 AA35-103; PDZ domain 1 of 1) (human, UniProt P08515 1-218 = GST); assay: A assay
T5 construct: also called RSG12

[6] = biological target: T6, GST-DVL1 PDZ domain fusion protein (human dishevelled segment polarity protein homolog AA248-340); PDZ domain … (human, UniProt P08515 1-218 = GST); assay: A assay
[7] = biological target: T7, GST-TAX40 PDZ domain fusion protein (human tax interaction protein 40 AA35-137; PDZ domain 1 of 1) (human, UniProt P08515 1-218 = GST); assay: A assay
T7 construct: also called TX 40

[8] = biological target: T8, GST-TIAM1 PDZ domain fusion protein (T-lymphoma invasion and metastasis inducing protein 1 AA1001-1088); PDZ 1 … (UniProt P08515 1-218 = GST); assay: A assay
[9] = biological target: T9, GST-SYN1a PDZ domain fusion protein (alpha1-syntrophin AA96-189; PDZ domain 1 of 1) (UniProt P08515 1-218 = GST); assay: A assay
T9 construct: also called SYN 1 alpha; SYNTR 1 alpha

[10] = biological target: T10, GST-TAX43 PDZ domain fusion protein (human tax interaction protein 43 AA15-85; PDZ domain 1 of 1) (human, UniProt P08515 1-218 = GST); assay: A assay
T10 construct: also called TX 43

[11] = biological target: T11, GST-CASK PDZ domain fusion protein (CASK AA495-584; PDZ domain 1 of 1) (mouse, UniProt P08515 1-218 = GST); assay: G assay
T11 construct: also called mCASK

[12] = biological target: T12, GST-NeDLG PDZ domain fusion protein (presynaptic protein sao102, neuroendocrine-dlg; PDZ domains 1-2 of 3) (UniProt P08515 1-218 = GST); assay: G assay
T12 construct: also called NeDLG1

[13] = biological target: GST-LIM PDZ domain fusion protein (Human LIM protein AA29-112; PDZ domain 1 of 1) (human, UniProt P08515 1-218 = GST); assay: A/G assays
[14] = biological target: GST-LIMK2 PDZ domain fusion protein (human LIM domain kinase 2 AA185-275; PDZ domain 1 of 1) (human, UniProt P08515 1-218 = GST); assay: A/G assays
[15] = biological target: T13, GST-MPP2 PDZ domain fusion protein (maguk p55 subfamily member 2 (DLG2) AA185-273; PDZ domain 1 of 1) (UniProt P08515 1-218 = GST); assay: A/G assays
T13 construct: also called MMP2

[16] = biological target: GST-NOS1 PDZ domain fusion protein (human neuronal nitric oxide synthase; PDZ domain 1 of 1) (human, UniProt P08515 1-218 = GST); assay: A/G assays
[17] = biological target: GST-PTN-4 PDZ domain fusion protein (protein-tyrosine phosphatase meg1 AA774-862; PDZ domain 1 of 1) (UniProt P08515 1-218 = GST); assay: A/G assays
[18] = biological target: T14, GST-KIAA0559 PDZ domain fusion protein (KIAA0559 AA766-870; PDZ1 of 1) (UniProt P08515 1-218 = GST); assay: A/G assays
T14 construct: also called K559

[19] = biological target: T15, GST-KIAA0316 PDZ domain fusion protein (KIAA0316 AA197-284; PDZ domain 1 of 1) (UniProt P08515 1-218 = GST); assay: A/G assays
T15 construct: also called K316

[20] = biological target: T16, GST-KIAA0303 PDZ domain fusion protein (KIAA0303 AA652-742; PDZ domain 1 of 1) (UniProt P08515 1-218 = GST); assay: A/G assays
T16 construct: also called K303

[21] = biological target: T17, GST-CBP PDZ domain fusion protein (Cytohesin binding protein HE AA85-175; PDZ domain 1 of 1) (UniProt P08515 1-218 = GST); assay: A/G assays
T17 construct: also called Prot

[22] = biological target: GST-MINT3 PDZ domain fusion protein (human MINT3 AA11-52; PDZ domain 1 of 1) (human, UniProt P08515 1-218 = GST); assay: A/G assays
[23] = biological target: T18, GST-TAX2 PDZ domain fusion protein (human tax interaction protein 2 AA54-140; PDZ domain 1 of 1) (human, UniProt P08515 1-218 = GST); assay: A/G assays
T18 construct: also called TX 2

[24] = biological target: T19, GST-TAX33 PDZ domain fusion protein (tax interaction protein 33 AA73-162; PDZ domain 1 of 1) (UniProt P08515 1-218 = GST); assay: A/G assays
T19 construct: also called TX33

[25] = biological target: T20, GST-PSD95 PDZ domain fusion protein (human post-synaptic density protein 95 AA387-724; PDZ domains 1-3 of 3) (human, UniProt P08515 1-218 = GST); assay: A and G assays
[26] = biological target: T11, GST-CASK PDZ domain fusion protein …; assay: A/G assays
[27] = biological target: T1, GST-AF6 PDZ domain fusion protein (af-6 …); assay: A/G assays
[28] = biological target: T2, GST-prIL16 PDZ domain fusion protein …; assay: A/G assays
[29] = biological target: T4, GST-MPP1 PDZ domain fusion protein (55 …); assay: A/G assays
[30] = biological target: T5, GST-RGS12 PDZ domain fusion protein …; assay: A/G assays
[31] = biological target: T6, GST-DVL1 PDZ domain fusion protein …; assay: A/G assays
[32] = biological target: T7, GST-TAX40 PDZ domain fusion protein …; assay: A/G assays
[33] = biological target: T8, GST-TIAM1 PDZ domain fusion protein …; assay: A/G assays
[34] = biological target: T9, GST-SYN1a PDZ domain fusion protein …; assay: A/G assays
[35] = biological target: T10, GST-TAX43 PDZ domain fusion protein …; assay: A/G assays
[36] = biological target: T20, GST-PSD95 PDZ domain fusion protein …; assay: G assay, peptide titrated on immobilized GST-PDZ, saturation fit (apparent affinity)
Text: (§1) FIGS. 2A and 2B show the Apparent Affinity Determination for PDZ-Ligand Interactions. […] The binding to GST alone (<0.2 OD units) was subtracted from the binding to the fusion proteins to obtain the signal at each peptide concentration.

[37] = biological target: T12, GST-NeDLG PDZ domain fusion protein …; assay: as above
Text: as §1

T10 sequence (P08515 1-218, tags or fused parts left off): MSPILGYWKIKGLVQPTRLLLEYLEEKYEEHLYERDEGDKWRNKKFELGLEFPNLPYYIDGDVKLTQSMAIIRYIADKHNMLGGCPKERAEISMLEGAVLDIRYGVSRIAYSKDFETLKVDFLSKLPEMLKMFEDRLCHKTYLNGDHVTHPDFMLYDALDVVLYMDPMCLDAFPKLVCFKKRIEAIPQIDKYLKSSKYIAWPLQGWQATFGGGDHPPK
T7 sequence (P08515 1-218, tags or fused parts left off): as above
T1 sequence (P08515 1-218, tags or fused parts left off): as above
T5 sequence (P08515 1-218, tags or fused parts left off): as above
T14 sequence (P08515 1-218, tags or fused parts left off): as above
T16 sequence (P08515 1-218, tags or fused parts left off): as above
T9 sequence (P08515 1-218, tags or fused parts left off): as above
Sequence of GST-NOS1 PDZ domain fusion protein (human neuronal nitric oxide synthase; PDZ domain 1 of 1) (P08515 1-218, tags or fused parts left off): as above
T11 sequence (P08515 1-218, tags or fused parts left off): as above
T20 sequence (P08515 1-218, tags or fused parts left off): as above
T19 sequence (P08515 1-218, tags or fused parts left off): as above
T15 sequence (P08515 1-218, tags or fused parts left off): as above
Sequence of GST-PTN-4 PDZ domain fusion protein (protein-tyrosine phosphatase meg1 AA774-862; PDZ domain 1 of 1) (P08515 1-218, tags or fused parts left off): as above
T13 sequence (P08515 1-218, tags or fused parts left off): as above
T2 sequence (P08515 1-218, tags or fused parts left off): as above
Sequence of GST-LIM PDZ domain fusion protein (Human LIM protein AA29-112; PDZ domain 1 of 1) (P08515 1-218, tags or fused parts left off): as above
T4 sequence (P08515 1-218, tags or fused parts left off): as above
T17 sequence (P08515 1-218, tags or fused parts left off): as above
Sequence of GST-LIMK2 PDZ domain fusion protein (human LIM domain kinase 2 AA185-275; PDZ domain 1 of 1) (P08515 1-218, tags or fused parts left off): as above
T18 sequence (P08515 1-218, tags or fused parts left off): as above
Sequence of GST-MINT3 PDZ domain fusion protein (human MINT3 AA11-52; PDZ domain 1 of 1) (P08515 1-218, tags or fused parts left off): as above

Binder: Biotin-SSAKSSNKNKKNKDKEYYV [Neurexin C-terminal PL peptide AA38L, biotinylated]
- binding result [1]: binds
- binding result [2]: binds
- binding result [3]: binds
- binding result [4]: binds
- binding result [5]: binds
- binding result [6]: binds
- binding result [7]: binds
- binding result [8]: binds
- binding result [9]: binds
- binding result [10]: binds
- binding result [11]: binds
- binding result [12]: binds
- binding result [13]: no binding
- binding result [14]: no binding
- binding result [15]: no binding
- binding result [16]: no binding
- binding result [17]: no binding
- binding result [18]: no binding
- binding result [19]: no binding
- binding result [20]: no binding
- binding result [21]: no binding
- binding result [22]: no binding
- binding result [23]: no binding
- binding result [24]: no binding
- binding result [25]: binds

Binder: Biotin-KDITSDSENSNFRNEIQSLV [CD95 (Apo-1/Fas) C-terminal PL peptide AA13L, biotinylated]
- binding result [26]: no binding
- binding result [13]: no binding
- binding result [14]: no binding
- binding result [15]: no binding
- binding result [16]: no binding
- binding result [27]: no binding
- binding result [17]: no binding
- binding result [28]: no binding
- binding result [18]: no binding
- binding result [29]: no binding
- binding result [30]: no binding
- binding result [19]: no binding
- binding result [31]: no binding
- binding result [32]: no binding
- binding result [33]: no binding
- binding result [20]: no binding
- binding result [21]: no binding
- binding result [22]: no binding
- binding result [23]: no binding
- binding result [24]: no binding
- binding result [34]: no binding
- binding result [35]: no binding
- Kd [36]: 85 µM
- Kd [37]: 54 µM
